How the values were obtained:
[1] = target: T1, soluble polymeric amyloid beta (UniProt P05067 672-713); experiment: ELISA on plates coated with the amyloid preparation (55 µg/ml), AP-labelled anti-mouse IgG
T1 construct: also called Oligomer; polymeric soluble amyloid
Experimental: In order to evaluate the specificity of mC2 to different stages of polymerized amyloid protein, monomeric, polymeric soluble and fibrillic amyloid, an ELISA coated with these different stages of polymeric beta-amyloid was performed (FIG. 9). Monomers were prepared according to a modified method published by (Klein, 2002), soluble polymeric amyloid beta according to (Barghorn et al., 2005), whereas fibers were performed by incubation of amyloid (Bachem, Switzerland) with a final concentration of 1 μg/μl in Tris/HCl pH 7.4 at 37° C. for 5 days followed by a centrifugation step (10,000 rpm for 5 minutes). Then amyloid polymers were coated on an ELISA plates with a final concentration of 55 μg/ml and binding affinity ELISA by using an anti-mouse IgG monoclonal antibody (Jackson) labelled with alkaline phosphate was performed.

[2] = target: Amyloid Beta (antigen of the Amyloid Beta ELISA) (UniProt P05067 672-713, limits assumed); experiment: Amyloid Beta ELISA, antibody purified from NS0 cells
Amyloid Beta (antigen of the Amyloid Beta ELISA), sequence (P05067 672-713 limits assumed): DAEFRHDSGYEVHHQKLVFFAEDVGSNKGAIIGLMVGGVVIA

T1 sequence (P05067 672-713): as the sequence (P05067 672-713 limits assumed) above

B1: mouse monoclonal antibody ACI-01-Ab7C2 (antibody, V domains shown)
VH: EVQLVESGGGLVQPGGSLKLSCAASGFTFSSYGMSWVRQTPDKRLELVASINSNGGSTYYPDSVKGRFTISRDNAKNTLYLQMSSLKSEDTAMYYCASGDYWGQGSTLTVSS
VL: DVVMTQTPLSLPVSLGDQASISCRSSQSLVYSNGDTYLHWYLQKPGQSPKLLIYKVSNRFSGVPDRFSGSGSGTDFTLKISRVEAEDLGVYFCSQSTHVPWTFGGGTKLEIK
notes: Mouse IgG2b/kappa from hybridoma FP-12H3-C2 (DSM ACC2750); also called mC2; Mouse ACI-01-Ab-7-C2
EC50 (read off the curve) [1]: ~0.4 mg/L

B2: C2HuVH4/HuVK2 humanized antibody (antibody, human IgG4 S228P, kappa, V domains shown)
VH: EVQLVESGGGLVQPGGSLRLSCAASGFTFSSYGMSWVRQAPGKGLELVASINSNGGSTYYPDSVKGRFTISRDNAKNSLYLQMNSLRAEDTAVYYCASGDYWGQGTTVTVSS
VL: DIVMTQSPLSLPVTPGEPASISCRSSQSLVYSNGDTYLHWYLQKPGQSPQLLIYKVSNRFSGVPDRFSGSGSGTDFTLKISRVEAEDVGVYFCSQSTHVPWTFGQGTKVEIKR
notes: also called C2HuVHAF4 with C2HuVK2
EC50 (read off the curve) [2]: ~4 ng/well
